The test system of this data set is MS2 coat protein. The data set is described as follows: apparent KD of MS2 coat protein; designed switch direction (-1 OFF switch, 1 ON switch): -1; higher = weaker reporter binding. Summed up: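 On Illumina chips, designed RNA switches with common flanks were made by stalled E. coli RNA polymerase. Titrations with SNAP-549-labelled MS2 coat protein, doubling from 0.7 or 1.5 nM to 3 µM, were done with no input, with 200 uM small-molecule ligand, or with an oligonucleotide input. Apparent KD is the median per design over clusters, from curve fits of normalised cluster fluorescence.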

The mark [1] stands for this setting: input ligand: microRNA oligo, concentration not stated.
The mark [2] stands for this setting: Eterna round: R95, input ligand: FMN 200 uM.
Where [3] appears, read: Eterna round: R95, input ligand: microRNA oligo, concentration not stated.
Setting [4] is: Eterna round: R95, input ligand: none.

As for “CAGUACUGAGGAUAUACAUGAGGAUCACCCAUGUGUUCCAGCUAGGAAACUAGCAGAAGUAGAAGGCAGUACUG [salish99_ex3_r3_067] (Eterna round: R96, puzzle: Exclusion 3)”, the “apparent KD of MS2 coat protein” value reads like this: (input ligand: FMN 200 uM) 311 nM; under setting [1], 17 nM; (input ligand: none) 23.3 nM.

As for “CAGUACUGAGGAUAUACAUGAGGAUCACCCAUGUGUUCCAGCUAGGAAACUAGCAGAAGUAGAAGGCAGUACUG [salish99_ex3_r3_067] (puzzle: Exclusion 3)”, the “apparent KD of MS2 coat protein” value reads like this: under setting [2], 425 nM; under setting [3], 25.5 nM; under setting [4], 23.9 nM.

As for “CAGUACUGAGGAUAUACAUGAGGAUCACCCAUGUGUUCCAGCUAGGAAACUAGGAAAAGUAGAAGGCAGUACUG [salish99_ex3_r3_069] (puzzle: Exclusion 3)”, the “apparent KD of MS2 coat protein” value under setting [3] is 23.1 nM.

In the case of “CAGUACUGAGGAUAUACAUGAGGAUCACCCAUGUGUUCCGGCUAGGAUACUAGCAAAGGUAGAAGGCAGUACUG [Mat - Exclusion 3 - Eli Mod - D22] (Eterna round: R97, puzzle: Exclusion 3)”, the “apparent KD of MS2 coat protein” value is, setting by setting: (input ligand: FMN 200 uM) 458 nM; (input ligand: none) 35.4 nM.

“CAGUACUGAGGAUAUACAUGAGGAUCACCCAUGUUUUCCAGCUAGGAAACUAGCAAAUGUAGAAGGCAGUACUG [Salish 065 m5] (Eterna round: R97, puzzle: Exclusion 3)”: the “apparent KD of MS2 coat protein” value (input ligand: FMN 200 uM) was 253 nM and the “apparent KD of MS2 coat protein” value (input ligand: none) came out at 25.4 nM.

With “CAGUACUGAGGAUAUACAUGAGGAUCACCCAUGUUUUCCAGCUAGGAUACUAGCAAGUGUAGAAGGCAGUACUG [Mat - Exclusion 3 - Eli Mod - D6] (Eterna round: R97, puzzle: Exclusion 3)”, the “apparent KD of MS2 coat protein” value by setting is: (input ligand: FMN 200 uM) 273 nM; (input ligand: none) 24.5 nM.

Turning to “CAGUACUGCAGGCUUAGGGACAUGAGGAUCACCCAUGUUCGUCUUAUUGAUCUAGGUACGCUGACGUACCUAGAUCU [JL-sv1-2.15 Brourd mod] (puzzle: Sensor v3, turn-off variant 1)”, the “apparent KD of MS2 coat protein” value under setting [2] is 16.9 nM, the “apparent KD of MS2 coat protein” value under setting [3] is 19 nM and the “apparent KD of MS2 coat protein” value under setting [4] worked out at 18.1 nM.

For “CAUACAGUAGUCAGGAUAUUGCAACACACACGGAACGAGAAGGGACAUGAGGAUCACCCAUGUAUACUGUAAAG [EX-4 Malc #5] (puzzle: Brourd's mod of Exclusion 4)”, the “apparent KD of MS2 coat protein” value under setting [2] is 16 nM, the “apparent KD of MS2 coat protein” value under setting [3] is 21 nM and the “apparent KD of MS2 coat protein” value under setting [4] was 24.7 nM.

Turning to “CAUACAGUAGUCAGGAUAUUGGAAGAGACACGGAACGAGAAGGGACAUGAGGAUCACCCAUGUAUACUGUAAAG [EX-4 Malc #4] (Eterna round: R96, puzzle: Brourd's mod of Exclusion 4)”, the “apparent KD of MS2 coat protein” value reads like this: (input ligand: FMN 200 uM) 22.3 nM; under setting [1], 25.5 nM; (input ligand: none) 29.9 nM.

Consider “CAUACAGUAGUCAGGAUAUUGGAAGAGACACGGAACGAGAAGGGACAUGAGGAUCACCCAUGUAUACUGUAAAG [EX-4 Malc #4] (puzzle: Brourd's mod of Exclusion 4)”, for which the “apparent KD of MS2 coat protein” value under setting [3] amounted to 23.8 nM.

For the sequence “CAUCACUGUGUCAGGAUAUCAUUUGGACGUCUAAGUGAGAAGGGACAUGAGGAUCACCCAUGUGGAGCUGGCCA [Eternabot (L1) Solution 63] (Eterna round: R97, puzzle: Brourd's mod of Exclusion 4)”, the “apparent KD of MS2 coat protein” value by setting is: (input ligand: FMN 200 uM) 73.5 nM; (input ligand: none) 41.8 nM.

“CAUCCACAUGAGGAUCACCCAUGUCAGGAUAUCUAUCAUAGCAUCGAAAGAUGCGGGUAGAGAAGGGACAAACC [ChP Ext 10-04-2015 #9] (puzzle: Exclusion 1)”: under setting [3], the “apparent KD of MS2 coat protein” value amounted to 12.4 nM.

With “CAUCCAGCUUCCCUUCAAAACAUGAGGAUCACCCAUGUUUUUGUUUUUACAAGCUUUUUGCUUUUUGCUCGUCUUGU [A Humble Attempt... Again] (puzzle: Sensor v3, turn-off variant 1)”, the “apparent KD of MS2 coat protein” value is 20.5 nM under setting [2], 16 nM under setting [3] and 21.5 nM under setting [4].

With “CAUGAUUGACGAGGAUAUUGUACUACAUCACGACGAGAAGGCGUCUGUCACAUGAGGAUCACCCAUGUGAGACUGGUGAAUGAG [Ex NG1 #80] (Eterna round: R96, puzzle: Exclusion NG 1)”, the “apparent KD of MS2 coat protein” value is, setting by setting: (input ligand: FMN 200 uM) 31.6 nM; under setting [1], 16.7 nM; (input ligand: none) 26.2 nM.

Turning to “CAUGAUUGACGAGGAUAUUGUUCUACAUGGCGACGAGAAGGCGUCUGUCACAUGAGGAUCACCCAUGUGAGUCUGGUGAAUGAG [Ex NG1 #83] (Eterna round: R96, puzzle: Exclusion NG 1)”, the “apparent KD of MS2 coat protein” value under setting [1] stood at 25.7 nM.

As to “CAUGAUUGGGAAGGAUAUUGACCUAGUUAGCGCCGAGAAGGUCCCUGUCACAUGAGGAUCACCCAUGUGAAUCUGGUGAAAGAG [Ex NG1 #93] (Eterna round: R96, puzzle: Exclusion NG 1)”, the “apparent KD of MS2 coat protein” value is, setting by setting: (input ligand: FMN 200 uM) 26.1 nM; under setting [1], 16.6 nM; (input ligand: none) 22.9 nM.

For the sequence “CAUGGAACGUAGGAUAUCUCGCGGCUAGGCUGCAGAGAAGGACGCACAUGAGGAUCACCCAUGUGUGAUCCAAA [Tibiataus] (puzzle: Exclusion 6)”, the “apparent KD of MS2 coat protein” value under setting [2] was found to be 27.6 nM, the “apparent KD of MS2 coat protein” value under setting [3] is 17 nM and the “apparent KD of MS2 coat protein” value under setting [4] amounted to 21.9 nM.

Turning to “CAUGUAAGUCGUUGAUCCAACAUGAGGAUCACCCAUGUCACUUUAGCUUUUUGCUCGUCUUAUCCUCCUUUGUUCAC [JR_STOV1_v2_Sub0100] (Eterna round: R97, puzzle: Sensor, turn-off variant 1)”, the “apparent KD of MS2 coat protein” value by setting is: (input ligand: FMN 200 uM) 482 nM; (input ligand: none) 1060 nM.

Regarding “CAUGUCUGAGGAUAUCGUUUUUUGUACAUGAGGAUCACCCAUGUCCUAUUUUUUAUAUUACGAGAAGGCAGUGGAU [JR_E5_Sub091] (Eterna round: R96, puzzle: Exclusion 5)”, the “apparent KD of MS2 coat protein” value (input ligand: FMN 200 uM) was 27.9 nM, the “apparent KD of MS2 coat protein” value under setting [1] was found to be 27.8 nM and the “apparent KD of MS2 coat protein” value (input ligand: none) came to 39.2 nM.

As to “CAUGUCUGAGGAUAUCGUUUUUUGUACAUGAGGAUCACCCAUGUCCUAUUUUUUAUAUUACGAGAAGGCAGUGGAU [JR_E5_Sub091] (puzzle: Exclusion 5)”, under setting [3], the “apparent KD of MS2 coat protein” value was determined as 34.9 nM.

On to “CCAACCAGAGGAUAUGCGCAUAGAUCAGACUUUGUUUCUGAACAUGAGGAUCACCCAUGUAGAAGGCUGUAACC [Ex2 #86] (Eterna round: R97, puzzle: Exclusion 2)”, for which the “apparent KD of MS2 coat protein” value came out at 26 nM (input ligand: FMN 200 uM) and 27.3 nM (input ligand: none).

In the case of “CCAAGCUUUUUCAUUAACAACAUGAGGAUCACCCAUGUUUAAGCUAUUACUUUUGGGCUCUUUAGUGCUCGUCUUAU [JR_STOV1_Sub040] (Eterna round: R97, puzzle: Sensor, turn-off variant 1)”, the “apparent KD of MS2 coat protein” value (input ligand: FMN 200 uM) was determined as 14.4 nM and the “apparent KD of MS2 coat protein” value (input ligand: none) is 13.9 nM.

For the sequence “CCAAUGUAAGGAUAUGACAAUGGUAUCUUCGGAUACCAUUGUCAGAAGGUACAUGAGGAUCACCCAUGUAUAAA [Ex4-3: 10] (puzzle: Exclusion 4)”, under setting [3], the “apparent KD of MS2 coat protein” value is 17.3 nM.

Regarding “CCACGACAUGAGGAUCACCCAUGUGAGGAUAUGGCCAGUAUGGCGUGAGCUGAAUCAAUCAGAAGGCGCGUGGG [salish99_ex1_r4_056] (Eterna round: R97, puzzle: Exclusion 1)”, the “apparent KD of MS2 coat protein” value (input ligand: FMN 200 uM) stood at 276 nM and the “apparent KD of MS2 coat protein” value (input ligand: none) turned out to be 339 nM.

Consider “CCACUGUCAGGAUAUCGUGCAUAACGUUUACAUUUUAUGUGCGAGAAGGGACAUGAGGAUCACCCAUGUAAACG [Omei Ex4 A28PK2] (Eterna round: R97, puzzle: Exclusion 4)”, for which the “apparent KD of MS2 coat protein” value by setting is: (input ligand: FMN 200 uM) 206 nM; (input ligand: none) 808 nM.

As to “CCAGCGAGUGUGAGGAUAUGCUGGUCCUUGGAUCAGCAGAAGGCACAUGAGGAUCACCCAUGUGAGGACGUUGG [JL bmx4 3.31] (Eterna round: R96, puzzle: Brourd's mod of Exclusion 4)”, the “apparent KD of MS2 coat protein” value is 294 nM (input ligand: FMN 200 uM), 27.9 nM under setting [1] and 31.9 nM (input ligand: none).

As to “CCAGCGAGUGUGAGGAUAUGCUGGUCCUUGGAUCAGCAGAAGGCACAUGAGGAUCACCCAUGUGAGGACGUUGG [JL bmx4 3.31] (puzzle: Brourd's mod of Exclusion 4)”, the “apparent KD of MS2 coat protein” value under setting [3] was 23.9 nM.

Take “CCAGCGUAUGUUAGGAUAUGCUGGUCGAAAGAUCAGCAGAAGGAACAUGAGGAUCACCCAUGUGGAAAAGUUGG [Mod of JL 25 - Jieux - Brourd's mod of Exclusion 4] (Eterna round: R97, puzzle: Brourd's mod of Exclusion 4)”: the “apparent KD of MS2 coat protein” value reads like this: (input ligand: FMN 200 uM) 184 nM; (input ligand: none) 30.4 nM.

“CCAGGCGUCUUUGCUCGUCUUAUUUGGAGAUGACUGUUAACAUGAGGAUCACCCAUGUGUGUGGGAGCGUUGCAGUC [JR_SV3TOV2_Sub021] (puzzle: Sensor v3, turn-off variant 2)”: the “apparent KD of MS2 coat protein” value by setting is: under setting [2], 580 nM; under setting [3], 431 nM; under setting [4], 885 nM.

Take “CCAUAGUCAGGAUAUACAUGAGGAUCACCCAUGUAAAAUUUUAAUUUAAUUUGAAGGUGUAGAAGGGACCAACC [Ex3 #30] (Eterna round: R97, puzzle: Exclusion 3)”: the “apparent KD of MS2 coat protein” value runs as follows: (input ligand: FMN 200 uM) 26.3 nM; (input ligand: none) 33.2 nM.

Take “CCAUAUUCGAAGGAUAUGCAAUUGGAUAGAUUCGCAGAAGGUCGAACAUGAGGAUCACCCAUGUCCCUGGUGAA [Eternabot (L2) Solution 89] (Eterna round: R97, puzzle: Exclusion 6)”: the “apparent KD of MS2 coat protein” value is 903 nM (input ligand: FMN 200 uM) and 133 nM (input ligand: none).

The values are drawn from the supplement of paper PMC9170038.
